T1: human EphB6 (Homo sapiens, UniProt O15197)
T1 construct: a protein of the extracellular region of each human Eph receptor fused with the SEAP protein and the His tag; made in house; host or cells: Expi293F cells
T1 sequence (O15197 32-594 limits assumed): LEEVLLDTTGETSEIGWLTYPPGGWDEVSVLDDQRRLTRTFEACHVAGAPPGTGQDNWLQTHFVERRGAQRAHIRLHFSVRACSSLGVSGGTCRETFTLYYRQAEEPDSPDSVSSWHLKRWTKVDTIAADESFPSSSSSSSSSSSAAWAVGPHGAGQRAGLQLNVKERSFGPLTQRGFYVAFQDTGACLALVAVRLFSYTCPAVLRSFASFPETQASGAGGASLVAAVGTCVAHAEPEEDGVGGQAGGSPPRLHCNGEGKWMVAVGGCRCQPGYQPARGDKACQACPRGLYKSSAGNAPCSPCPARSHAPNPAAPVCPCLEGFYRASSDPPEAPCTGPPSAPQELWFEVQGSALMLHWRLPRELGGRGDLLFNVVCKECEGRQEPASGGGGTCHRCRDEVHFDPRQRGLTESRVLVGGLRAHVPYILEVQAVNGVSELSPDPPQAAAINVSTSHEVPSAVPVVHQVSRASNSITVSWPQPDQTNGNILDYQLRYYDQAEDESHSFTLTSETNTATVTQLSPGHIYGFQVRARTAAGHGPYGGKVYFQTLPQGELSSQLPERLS

T2: human EphA8 (Homo sapiens, UniProt P29322)
T2 construct: a protein of the extracellular region of each human Eph receptor fused with the SEAP protein and the His tag; made in house; host or cells: Expi293F cells (culture supernatant)
T2 sequence (P29322 28-542 limits assumed): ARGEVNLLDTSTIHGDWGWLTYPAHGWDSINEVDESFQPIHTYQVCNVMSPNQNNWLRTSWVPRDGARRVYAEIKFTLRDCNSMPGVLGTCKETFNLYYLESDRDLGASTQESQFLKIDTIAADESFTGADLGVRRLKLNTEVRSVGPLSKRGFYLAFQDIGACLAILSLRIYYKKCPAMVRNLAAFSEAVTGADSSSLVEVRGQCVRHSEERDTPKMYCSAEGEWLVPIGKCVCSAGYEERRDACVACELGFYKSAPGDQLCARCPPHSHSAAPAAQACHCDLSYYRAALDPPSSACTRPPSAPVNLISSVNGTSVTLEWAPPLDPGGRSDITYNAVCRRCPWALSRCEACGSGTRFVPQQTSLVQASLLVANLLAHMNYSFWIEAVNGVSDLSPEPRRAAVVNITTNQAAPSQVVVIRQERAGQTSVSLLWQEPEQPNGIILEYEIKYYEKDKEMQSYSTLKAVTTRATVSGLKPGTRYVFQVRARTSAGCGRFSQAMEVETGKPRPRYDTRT

T3: human EphB1 (Homo sapiens, UniProt P54762)
T3 construct: a protein of the extracellular region of each human Eph receptor fused with the SEAP protein and the His tag; made in house; host or cells: Expi293F cells (culture supernatant)
T3 sequence (P54762 18-540 limits assumed): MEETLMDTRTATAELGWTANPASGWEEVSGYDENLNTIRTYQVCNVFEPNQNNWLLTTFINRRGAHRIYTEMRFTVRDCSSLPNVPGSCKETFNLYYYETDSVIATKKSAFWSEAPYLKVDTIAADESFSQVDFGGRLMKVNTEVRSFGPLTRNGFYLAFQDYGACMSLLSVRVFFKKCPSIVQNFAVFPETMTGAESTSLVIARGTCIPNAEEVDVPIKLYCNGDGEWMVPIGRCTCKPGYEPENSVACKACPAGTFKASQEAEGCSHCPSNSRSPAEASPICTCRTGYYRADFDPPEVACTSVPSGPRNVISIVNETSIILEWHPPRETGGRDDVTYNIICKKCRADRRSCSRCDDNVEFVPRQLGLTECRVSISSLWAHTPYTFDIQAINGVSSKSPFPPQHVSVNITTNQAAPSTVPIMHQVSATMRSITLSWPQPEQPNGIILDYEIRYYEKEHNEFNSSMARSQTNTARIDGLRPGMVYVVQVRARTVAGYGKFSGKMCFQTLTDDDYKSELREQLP


Tests used:
Assay in all cases: Selectivity ELISA of humanized antibodies for human Eph receptor
Format in all cases: binding
Details in all cases: coated protein 1 nM
human EphB6 = target: T1, human EphB6
Excerpt: (§1) According to the method described in Example 7, a DNA sequence encoding the signal sequence and the extracellular region of each human Eph receptor (EphA1, EphA2, EphA3, EphA4, EphA5, EphA6, EphA7, EphA8, EphA10, EphB1, EphB2, EphB3, EphB4, and EphB6) was amplified by RT-PCR using tissue-derived total RNA and cloned into a pENTR1A vector (Invitrogen/Life Technologies) having a DNA sequence encoding SEAP protein and histidine tag. Next, the DNA sequence encoding the signal sequence and the extracellular region of each human Eph receptor, SEAP protein, and histidine tag was transferred to a pcDNA3.1_rfcB vector through LR reaction using Gateway System (Invitrogen/Life Technologies) to construct a vector for the expression of a protein of the extracellular region of each human Eph receptor fused with the SEAP protein and the His tag (referred to as “Eph receptor extracellular region-SEAP-His protein”) (this vector is referred to as “Eph receptor extracellular region-SEAP-His protein expression vector”).
(§2) Next, each human Eph receptor extracellular region-SEAP-His protein expression vector was transferred to Expi293F cells (Gibco/Thermo Fisher Scientific) using Expi293 expression system (Gibco/Thermo Fisher Scientific). After incubation (5% CO2, 37° C.) for 5 days, the culture supernatant was recovered and centrifuged at 1500 rpm at room temperature for 5 minutes. The centrifugation supernatant was filtered through a 0.45-μm filter (Merck Millipore).
(§3) Each anti-EphA4 monoclonal humanized antibody obtained in Example 16 was evaluated for its binding activity against each human Eph receptor according to the following steps.
(§4) Each well of a 96-well plate (Nunc) was coated with a rabbit anti-6-His antibody (Bethyl Laboratories). Each well was […] After washing with 0.05% Tween 20/PBS (Nacalai Tesque) three times, the SEAP-His protein of human EphA1, EphA2, EphA3, EphA4, EphA5, EphA6, EphA7, EphA8, EphA10, EphB1, EphB2, EphB3, EphB4, or EphB6 was added (final concentration: 1 nM) to each well and incubated at room temperature for 1 hour. After washing three times, the humanized antibody was added to each well and incubated at room temperature for 1 hour. After washing three times, a horseradish peroxidase-labeled donkey […] IgG antibody (Jackson ImmunoResearch Laboratories) was added thereto and incubated at room temperature for 1 hour. After washing three times, TMB Microwell Peroxidase Substrate System (Kirkegaard & Perry Laboratories (KPL)) was added to each well. After confirmation of moderate color development, an equal amount of a reaction stopping solution (1N H2SO4, Wako Pure Chemical Industries) was added to each well. The absorbance at 450 nm was read using a microplate reader (Thermo Fisher Scientific).

human EphA5 = target: T4, human EphA5 (Homo sapiens, UniProt P54756)
T4 construct: a protein of the extracellular region of each human Eph receptor fused with the SEAP protein and the His tag; made in house; host or cells: Expi293F cells (culture supernatant)
Excerpt: as §1, §2, §3, §4

human EphA8 = target: T2, human EphA8
Excerpt: as §1, §2, §3, §4

human EphB1 = target: T3, human EphB1
Excerpt: as §1, §2, §3, §4

T4 sequence (P54756 25-573 limits assumed): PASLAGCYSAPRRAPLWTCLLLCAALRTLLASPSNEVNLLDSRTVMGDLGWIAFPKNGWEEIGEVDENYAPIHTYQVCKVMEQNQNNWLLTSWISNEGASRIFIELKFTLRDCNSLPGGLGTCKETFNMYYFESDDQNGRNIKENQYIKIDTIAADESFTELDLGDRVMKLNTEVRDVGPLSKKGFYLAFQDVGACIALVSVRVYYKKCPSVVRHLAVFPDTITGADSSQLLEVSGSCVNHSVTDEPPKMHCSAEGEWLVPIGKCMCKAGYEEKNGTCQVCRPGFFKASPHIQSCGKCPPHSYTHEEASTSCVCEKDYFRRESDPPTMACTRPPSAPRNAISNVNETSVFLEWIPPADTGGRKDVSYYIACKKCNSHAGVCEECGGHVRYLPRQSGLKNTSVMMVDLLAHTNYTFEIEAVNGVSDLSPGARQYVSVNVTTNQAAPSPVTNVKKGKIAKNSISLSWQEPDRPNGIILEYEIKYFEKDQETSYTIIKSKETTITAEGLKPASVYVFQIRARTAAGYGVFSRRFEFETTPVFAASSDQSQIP

Row | Molecule | hEphB6-SEAP-: absorbance at 450 nm, percentage with respect to hEphA4-SEAP-His as 100% (human EphB6) [%] | hEphA5-SEAP-: absorbance at 450 nm, percentage with respect to hEphA4-SEAP-His as 100% (human EphA5) [%] | hEphA8-SEAP-: absorbance at 450 nm, percentage with respect to hEphA4-SEAP-His as 100% (human EphA8) [%] | hEphB1-SEAP-: absorbance at 450 nm, percentage with respect to hEphA4-SEAP-His as 100% (human EphB1) [%]
1 | 87 (antibody, V domains shown, constant regions without entry; synthetic humanized antibody light chain variable region sequence; synthetic humanized antibody heavy chain variable region sequence) VL: DIQMTQSPSSLSASVGDRVTITCRASENIYRNLAWYQQKPGKAPQLLLYAATNLADGVPSRFSGSGSGTDYTLTISSLQPEDFATYYCQHFWGTPWTFGQGTKVEIK VH: QVQLVQSGSELKKPGASVKVSCKASGYTFTDYSMHWVRQAPGQGLEWMGWINTETGEPTYAQGFTGRFVFSLDTSVSTAYLQISSLKAEDTAVYYCARIPLYYYGSRYWYFDVWGQGTTVTVSS | 5.3 | 5.4 | 5.7 | 5.3
2 | 88 (antibody, V domains shown, constant regions without entry; synthetic humanized antibody light chain variable region sequence; synthetic humanized antibody heavy chain variable region sequence) VL: DIQMTQSPSSLSASVGDRVTITCRASENIYRNLAWYQQKPGKAPQLLLYAATNLADGVPSRFSGSGSGTDYTLTISSLQPEDFATYYCQHFWGTPWTFGQGTKVEIK VH: QVQLVQSGSELKKPGASVKVSCKASGYTFTDYSMHWVRQAPGQGLKWMGWINTETGEPTYAQGFTGRFVFSLDTSVSTAYLQISSLKAEDTAVYYCARIPLYYYGSRYWYFDVWGQGTTVTVSS | 6.1 | 5.9 | 6.2 | 6.1

Second part, the molecule after the results:

Row | hEphB6-SEAP-: absorbance at 450 nm, percentage with respect to hEphA4-SEAP-His as 100% (human EphB6) [%] | hEphA5-SEAP-: absorbance at 450 nm, percentage with respect to hEphA4-SEAP-His as 100% (human EphA5) [%] | hEphA8-SEAP-: absorbance at 450 nm, percentage with respect to hEphA4-SEAP-His as 100% (human EphA8) [%] | hEphB1-SEAP-: absorbance at 450 nm, percentage with respect to hEphA4-SEAP-His as 100% (human EphB1) [%] | Molecule
3 | 5.2 | 5.0 | 5.5 | 5.0 | 85 (antibody, V domains shown, constant regions without entry; synthetic humanized antibody light chain variable region sequence; synthetic humanized antibody heavy chain variable region sequence) VL: DIQMTQSPSSLSASVGDRVTITCRASENIYRNLAWYQQKPGKAPKLLLYAATNLADGVPSRFSGSGSGTDYTLTISSLQSEDFATYYCQHFWGTPWTFGQGTKVEIK VH: QVQLVQSGSELKKPGASVKVSCKASGYTFTDYSMHWVRQAPGQGLKWMGWINTETGEPTYADDFKGRFVFSLDTSVSTAYLQISSLKAEDTAVYYCARIPLYYYGSRYWYFDVWGQGTTVTVSS
4 | 5.7 | 5.7 | 5.7 | 5.7 | 86 (antibody, V domains shown, constant regions without entry; synthetic humanized antibody light chain variable region sequence; synthetic humanized antibody heavy chain variable region sequence) VL: DIQMTQSPSSLSASVGDRVTITCRASENIYRNLAWYQQKPGKAPKLLLYAATNLADGVPSRFSGSGSGTDYTLTISSLQSEDFATYYCQHFWGTPWTFGQGTKVEIK VH: QIQLVQSGSELKKPGASVKVSCKASGYTFTDYSMHWVRQAPGQGLKWMGWINTETGEPTYADDFKGRFVFSLDTSVSTAYLQISSLKAEDTAVYYCARIPLYYYGSRYWYFDVWGQGTTVTVSS

From patent publication US10428140B2, “Anti-EphA4 antibody” (EISAI R&D MANAGEMENT CO., LTD., priority 2015, dated 2019)
